The results in this text go back to paper PMC5441903, “The E3 ligase ABI3-INTERACTING PROTEIN2 negatively regulates FUSCA3 and plays a role in cotyledon development in Arabidopsis thaliana” (Journal of Experimental Botany, 2017).

Where a chain is given by its changes, count along the chain named.

The target of the test is T1, GST–FUS3 (Arabidopsis thaliana, UniProt Q9LW31 1-313).
T1 construct: FUSCA3 (FUS3), Arabidopsis thaliana, At3g26790; GST fusion of ~66 kDa, construct described in Lu et al. (2010); probably the whole FUS3; also called glutathione S-transferase (GST)–FUS3; source: recombinant, purified (glutathione resin)
T1 sequence (looked up): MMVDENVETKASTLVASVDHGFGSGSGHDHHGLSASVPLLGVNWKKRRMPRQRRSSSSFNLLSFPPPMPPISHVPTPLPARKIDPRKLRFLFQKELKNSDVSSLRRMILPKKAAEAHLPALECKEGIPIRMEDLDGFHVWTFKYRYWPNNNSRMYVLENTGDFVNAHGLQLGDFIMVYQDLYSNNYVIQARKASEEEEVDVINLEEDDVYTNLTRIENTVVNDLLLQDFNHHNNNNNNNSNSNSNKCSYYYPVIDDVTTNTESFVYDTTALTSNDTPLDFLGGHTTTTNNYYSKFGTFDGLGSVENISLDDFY
The test is described as follows: pull-down; purified GST–FUS3 as bait, purified AIP2-6×His variants as prey; glutathione resin; immunoblots with anti-His and anti-GST. The following applies: both partners purified. A general note: In western blotting, separated proteins are transferred to a membrane and probed.

B1: FLAG-AIP2-6×His (natural protein, Arabidopsis thaliana, UniProt Q8RXD3 1-310, looked up)
chain: MDASSSPSPSEESLKLELDDLQKQLNKKLRFEASVCSIHNLLRDHYSSSSPSLRKQFYIVVSRVATVLKTRYTATGFWVAGLSLFEEAERLVSDASEKKHLKSCVAQAKEQLSEVDNQPTESSQGYLFEGHLTVDREPPQPQWLVQQNLMSAFASIVGGESSNGPTENTIGETANLMQELINGLDMIIPDILDDGGPPRAPPASKEVVEKLPVIIFTEELLKKFGAEAECCICKENLVIGDKMQELPCKHTFHPPCLKPWLDEHNSCPICRHELPTDDQKYENWKEREKEAEEERKGAENAVRGGEYMYV
notes: tagged protein of ~40 kDa; also called AIP2-His; source: cloned into pET28, purified (Ni-NTA-agarose)
Turning to B1, the binding result is reported as “binds”.

B2: AIP2^(C/S,E/G)-6×His (inactive AIP2 variant) (natural protein, Arabidopsis thaliana, UniProt Q8RXD3 1-310, looked up)
chain: B1 chain with C230S, C231S, E235G
notes: ~40 kDa; Probably the same FLAG-...-6×His construct as m5 with the three mutations; source: recombinant, purified
B2: the binding result is reported as “binds”.
